{
  "source": "patent US9926369B2",
  "about": "“Methods for treating hepatocellular cancer by administering an anti-Ang-2 antibody” (Regeneron Pharmaceuticals, Inc., priority 2009, dated 2018)",
  "key": {"hAng-1-WT": {"target": "T1, hAng-1-WT (Homo sapiens, UniProt Q15389)", "T1 construct": "Full-length wild-type human Ang-1 or Ang-2 at a concentration of 25 nM or 0.78 nM", "T1 sequence (Q15389 16-498)": "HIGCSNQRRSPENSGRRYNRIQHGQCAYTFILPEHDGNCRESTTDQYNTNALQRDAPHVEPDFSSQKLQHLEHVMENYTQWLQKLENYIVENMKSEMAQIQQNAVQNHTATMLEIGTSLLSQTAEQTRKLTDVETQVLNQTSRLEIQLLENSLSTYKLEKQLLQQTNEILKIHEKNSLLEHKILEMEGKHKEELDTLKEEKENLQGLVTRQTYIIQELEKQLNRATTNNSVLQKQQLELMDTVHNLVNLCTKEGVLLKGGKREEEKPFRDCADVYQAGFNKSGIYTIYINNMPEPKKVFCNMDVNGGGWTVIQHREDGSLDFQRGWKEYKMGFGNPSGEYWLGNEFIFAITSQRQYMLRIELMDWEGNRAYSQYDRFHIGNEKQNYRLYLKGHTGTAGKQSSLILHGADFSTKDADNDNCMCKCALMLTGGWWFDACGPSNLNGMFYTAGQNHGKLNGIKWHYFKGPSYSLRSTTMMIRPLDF", "assay": "SPR binding to full-length wild-type human Ang-1 (preferential binding)", "experimental": "Binding experiments (plasmon resonance assays) were conducted to ascertain whether selected antibodies bound to both Ang-2 and Ang-1 or if they preferentially bound to Ang-2 only. Each selected antibody or control construct was captured at a flow rate of 40 μL/min for 1 minute on a goat anti-human IgG polyclonal antibody surface created through direct chemical coupling to a BIACORE™ chip to form a captured antibody surface. Full-length wild-type human Ang-1 or Ang-2 at a concentration of 25 nM or 0.78 nM were injected over the captured antibody surface at a flowrate of 60 μL/min for 3 minutes, and antigen-antibody dissociation was monitored in real time for 20 minutes at either 25° C. or 37° C."}, "hAng-2FD-mFc N-467-G": {"target": "T2, hAng-2FD-mFc N-467-G (Homo sapiens, UniProt O15123, N467G)", "T2 construct": "made in house", "T2 sequence (O15123 with tags, fused parts or gaps N467G)": "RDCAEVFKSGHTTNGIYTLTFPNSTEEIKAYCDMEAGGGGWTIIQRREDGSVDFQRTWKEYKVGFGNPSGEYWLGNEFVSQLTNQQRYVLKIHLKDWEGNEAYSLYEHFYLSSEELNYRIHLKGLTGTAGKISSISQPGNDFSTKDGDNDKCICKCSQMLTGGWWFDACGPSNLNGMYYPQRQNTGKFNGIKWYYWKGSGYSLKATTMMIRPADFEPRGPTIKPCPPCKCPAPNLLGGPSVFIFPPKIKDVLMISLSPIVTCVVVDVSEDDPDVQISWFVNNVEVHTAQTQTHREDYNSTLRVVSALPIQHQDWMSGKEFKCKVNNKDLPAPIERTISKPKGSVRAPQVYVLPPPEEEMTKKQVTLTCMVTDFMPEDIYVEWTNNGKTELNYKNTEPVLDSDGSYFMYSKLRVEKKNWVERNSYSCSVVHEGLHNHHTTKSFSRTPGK", "assay": "Ang-2FD-mFc point mutant binding experiment (SPR), N-467-G", "details": "N-467-G mutant captured; antibody/peptibody at 100 nM; 25° C.", "description": "To further characterize binding between hAng2 and anti-hAng2 mAbs of the invention, seven variant hAng2-FD-mFc proteins were generated, each containing a single point mutation. Amino acids selected for mutation were based on the difference in sequence between hAng-2 and hAng-1 in the region that interacts with hTie-2 (FIG. 1). In particular, amino acids within the fibrinogen-like domain (FD) of Ang-2 which are believed to interact with Tie-2 based on crystal structure analysis, but which differ from the corresponding amino acid in Ang-1, were individually mutated to the corresponding hAng-1 residue. The results of this example indicate the amino acid residues of hAng-2 with which the Ang-2 preferential binding antibodies interact.\nIn this experiment, each of the seven hAng-2FD-mFc mutant proteins were captured (˜147-283 RU) on an anti-mouse-Fc surface created through direct chemical coupling to a BIACORE™ chip. Then each Ang-2 antibody (or peptibody, as the case may be) at 100 nM was injected over the captured mFc-tagged hAng-2FD protein surface at a flowrate of 50 μl/min for 180 sec, and the dissociation of variant hAng2-FD-mFc and antibody was monitored in real time for 20 min at 25° C."}},
  "data": [
    {"substance": "H1H685P: human anti-Ang-2 antibody, HCVR/LCVR SEQ ID NOs 18/20; also referred to as mAb1 [Antibody H1H685P]", "values": [
      {"measurement": "KD, binding to hAng-1-WT", "setting": "hAng-1-WT; 25° C.", "value": "No binding"},
      {"measurement": "ka, binding to hAng-1-WT", "setting": "hAng-1-WT; 25° C.", "value": "No binding"},
      {"measurement": "kd, binding to hAng-1-WT", "setting": "hAng-1-WT; 25° C.", "value": "No binding"},
      {"measurement": "KD, binding to hAng-1-WT", "setting": "hAng-1-WT; 37° C.", "value": "No binding"},
      {"measurement": "ka, binding to hAng-1-WT", "setting": "hAng-1-WT; 37° C.", "value": "No binding"},
      {"measurement": "kd, binding to hAng-1-WT", "setting": "hAng-1-WT; 37° C.", "value": "No binding"},
      {"measurement": "Binding to Ang-1 (in words)", "setting": "hAng-1-WT; SPR", "value": "does not bind to Ang-1"},
      {"measurement": "Kd", "setting": "hAng-2FD-mFc N-467-G", "value": 9.38, "unit": "pM"},
      {"measurement": "RU", "setting": "hAng-2FD-mFc N-467-G", "value": 152.25, "unit": "RU"}
    ]}
  ]
}
